T1: GPC2 (Homo sapiens, UniProt Q8N158)
T1 sequence (Q8N158 24-554): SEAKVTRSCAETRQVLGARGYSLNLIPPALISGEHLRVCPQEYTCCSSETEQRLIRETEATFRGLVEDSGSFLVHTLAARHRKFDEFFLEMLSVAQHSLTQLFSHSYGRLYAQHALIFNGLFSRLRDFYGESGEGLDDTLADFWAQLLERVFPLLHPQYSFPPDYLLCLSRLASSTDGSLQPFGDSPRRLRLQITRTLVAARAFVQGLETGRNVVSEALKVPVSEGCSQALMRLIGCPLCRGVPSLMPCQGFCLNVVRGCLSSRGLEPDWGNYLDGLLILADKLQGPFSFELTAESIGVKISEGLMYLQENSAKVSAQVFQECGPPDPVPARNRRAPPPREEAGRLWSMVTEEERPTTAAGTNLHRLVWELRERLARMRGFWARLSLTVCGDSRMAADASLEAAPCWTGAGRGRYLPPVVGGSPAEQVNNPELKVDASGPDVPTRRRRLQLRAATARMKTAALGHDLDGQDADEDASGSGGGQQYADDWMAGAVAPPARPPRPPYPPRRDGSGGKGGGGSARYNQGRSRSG

T2: cancer cell-associated GPC2 (Homo sapiens, UniProt Q8N158)
T2 sequence (Q8N158 24-554): T1 sequence (Q8N158 24-554)

B1: m202 (antibody, V domains shown)
VH: QVQLVQSGGGLIQPGGSLRLSCAASGFTVSSNYMSWVRQAPGKGLEWVSVIYSGGSTYYADSVKGRFTISRDNSKNTLYLQMNSLRAEDTAVYYCARDSNAFDIWGQGTMVTVSS
VL: EIVLTQSPLSLPVTPGEPASISCRSSQSLLYSNGYNYLDWYLQKPGKSPQVLIYLGSNRASGVPDRFSGSGSGTDFTLKISRVEAEDVGVYYCMQALQTPITFGQGTRLEIKR
B2: m203 (antibody, V domains shown)
VH: EVQLVQSGGGLVQPGGSLRLSCAASGFTFSSYAMSWVRQAPGKGLEWVSAISGSGGSTYYADSVKGRFTISRDNSKNTLSLQMDSLRPEDTAVYYCAKSRDSGNYLDAFDFWGQGTMVTVSS
VL: DIQLTQSPSTLSASVGDRVTITCRASQSISSWLAWYQQKAGKAPRLLIYDASTLESGVPSRFSGTGSGTYFTLTISSLQPEDFATYYCQQFNSFPLTFGGGTKVEIKR
B3: m201 (antibody, V domains shown)
VH: EVQLVETGGGVVKPGGSLRLSCAASGFTFSDYYMSWIRQAPGKGLEWVSYISSSGSTIYYADSVKGRFTISRDNSKNTLYLQMNSLRAEDTAVYYCARESGYDYVFDYWGQGTLVAVSS
VL: DIQMTQSPSTLSAFVGDRVTITCRASQSISSWLAWYQQKPGKAPKLLIYAASTLQSGVPSRFSGSGSGTEFTLTISSLQPEDFATYYCQQLNSYPITFGQGTRLEIKR

Experiments:
GPC2 = target: T1, GPC2; test: In vitro characterization of GPC2 antibodies; conditions: for use in CAR-T, ADC and bispecific antibody development
[1] = target: T2, cancer cell-associated GPC2; test: Targeting of GPC2 by phage display derived human antibodies; format: binding; conditions: isolated from phage display antibody library, affinity matured

Molecule	therapeutic activity in in vitro characterization (GPC2)	specific targeting of cancer cell-associated GPC2 [1]
B1	promising therapeutic activity	specifically targeting cancer cell-associated GPC2
B2	promising therapeutic activity	specifically targeting cancer cell-associated GPC2
B3	promising therapeutic activity	

Reference: patent US11814440B2, “Glypican 2 as a cancer marker and therapeutic target” (THE CHILDREN'S HOSPITAL OF PHILADELPHIA, priority 2015, dated 2023)
